The values below come from the supplement of paper PMC7877785.

This data set in a line: self-splicing fitness, log relative to wild type (ln ratio); higher = more splicing; Tetrahymena group I intron in knt gene, E. coli kanamycin selection, DiMSum; sequences stand for … in CUCUCU…GGAGGGAAAAGUUAUCAGGCAUGCACCUGGUAGCUAGUCUUUAAACCAAUAGAUUGCAUCGGUUUAAAAGGCAAGACCGUCAAAUUGCGGGAAAGGGGUCAACAGCCGUUCAGUACCAAGUCUCAGGGGAAACUUUGAGAUGGCCUUGCAAAGGGUAUGGUAAUAAGCUGACGGACAUGGUCCUAACCACGCAGCCAAGUCCUAAGUCAACAGAUCUUCUGUUGAUAUGGAUGCAGUUCACAGACUAAAUGUCGGUCGGGGAAGAUGUAUUCUUCUCAUAAGAUAUAGUCGGACCUCUCCUUAAUGGGAGCUAGCGGAUGAAGUGAUGCAACACUGGAGCCGCUGGGAACUAAUUUGUAUGCGAAAGUAUAUUGAUUAGUUUUGGAGUACUCGUGGUCG
Summed up: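 Colonies from six replicate transformations of E. coli BL21(DE3) were pooled and amplicon-sequenced on an Illumina HiSeq 2500. The library placed an intron with all eight P1ex-region nucleotides randomised inside the knt kanamycin-resistance gene on pET-22b(+), and cells grew overnight at 37°C or 30°C on LB agar with or without 25 μg/mL kanamycin (plus 100 μg/mL carbenicillin, 50 μM IPTG, 0.2% rhamnose). Fitness is the DiMSum error-weighted combination of wild-type-normalised replicate fold changes, kanamycin versus none.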

± gives the uncertainty stated by the source.

On to CAGAAGCAAUAUUACGCGCU, for which the “self-splicing fitness (ln)” value by setting is: (30 °C) -2.62 ± 0.17; (37 °C) -1.92 ± 0.18.
The matching figures for CAGAAGCAAUAUUACGCUGA: -2.87 ± 0.18 and -1.98 ± 0.15.
The like results for CAGAAGCAAUAUUACGCUUU were, in that order, -2.99 ± 0.17 and -3.59 ± 0.26.
The like results for CAGAAGCAAUAUUACGGACU were, in that order, -2.88 ± 0.27 and -0.24 ± 0.31.
For the sequence CAGAAGCAAUAUUACGGCAG, the “self-splicing fitness (ln)” value (30 °C) was -0.0496 ± 0.063 and the “self-splicing fitness (ln)” value (37 °C) came to 0.33 ± 0.083.
On to CAGAAGCAAUAUUACGGCGU, for which the “self-splicing fitness (ln)” value by setting is: (30 °C) -2.01 ± 0.18; (37 °C) -1.18 ± 0.18.
For the sequence CAGAAGCAAUAUUACGGCUC, the “self-splicing fitness (ln)” value reads like this: (30 °C) -2.64 ± 0.28; (37 °C) -0.31 ± 0.21.
For the sequence CAGAAGCAAUAUUACGGUGU, the “self-splicing fitness (ln)” value runs as follows: (30 °C) -3.05 ± 0.12; (37 °C) -2.22 ± 0.14.
In the case of CAGAAGCAAUAUUACGUCGA, the “self-splicing fitness (ln)” value by setting is: (30 °C) -2.1 ± 0.13; (37 °C) -0.369 ± 0.1.
The matching figures for CAGAAGCAAUAUUACGUGAG: -1.05 ± 0.064 and -0.806 ± 0.076.
In the case of CAGCAGCAAUAUUACGACCG, the “self-splicing fitness (ln)” value reads like this: (30 °C) -0.0535 ± 0.096; (37 °C) 0.48 ± 0.12.
The like results for CAGCAGCAAUAUUACGACUG were, in that order, -3.64 ± 0.24 and -2.76 ± 0.33.
Turning to CAGCAGCAAUAUUACGAGGC, the “self-splicing fitness (ln)” value is, setting by setting: (30 °C) -3.04 ± 0.17; (37 °C) -2.92 ± 0.2.
The like results for CAGCAGCAAUAUUACGCAAA were, in that order, -3.14 ± 0.34 and -1.77 ± 0.23.
With CAGCAGCAAUAUUACGCUCA, the “self-splicing fitness (ln)” value by setting is: (30 °C) -0.65 ± 0.085; (37 °C) -0.0891 ± 0.11.
The like results for CAGCAGCAAUAUUACGCUGG were, in that order, -2.69 ± 0.15 and -2.43 ± 0.17.
The matching figures for CAGCAGCAAUAUUACGGAAA: -3.12 ± 0.14 and -2.19 ± 0.16.
The matching figures for CAGCAGCAAUAUUACGGACU: -2.43 ± 0.21 and -1.41 ± 0.13.
For the sequence CAGCAGCAAUAUUACGGCGA, the “self-splicing fitness (ln)” value (30 °C) was -0.356 ± 0.11 and the “self-splicing fitness (ln)” value (37 °C) is -0.114 ± 0.12.
On to CAGCAGCAAUAUUACGGUAA, for which the “self-splicing fitness (ln)” value is, setting by setting: (30 °C) -1.97 ± 0.12; (37 °C) -1.41 ± 0.12.
The like results for CAGCAGCAAUAUUACGUAGU were, in that order, -3.03 ± 0.12 and -2.56 ± 0.13.
The matching figures for CAGCAGCAAUAUUACGUAUU: -3.51 ± 0.25 and -2.23 ± 0.22.
Take CAGCAGCAAUAUUACGUGGA: the “self-splicing fitness (ln)” value was -3.09 ± 0.13 (30 °C) and -1.84 ± 0.12 (37 °C).
Turning to CAGGAGCAAUAUUACGAAGG, the “self-splicing fitness (ln)” value by setting is: (30 °C) -1.43 ± 0.13; (37 °C) -0.955 ± 0.18.
Regarding CAGGAGCAAUAUUACGAAUA, the “self-splicing fitness (ln)” value reads like this: (30 °C) -3.47 ± 0.29; (37 °C) -1.49 ± 0.24.
For the sequence CAGGAGCAAUAUUACGACAU, the “self-splicing fitness (ln)” value (30 °C) was -3.768 ± 0.031 and the “self-splicing fitness (ln)” value (37 °C) is -2.94 ± 0.046.
On to CAGGAGCAAUAUUACGACGG, for which the “self-splicing fitness (ln)” value is, setting by setting: (30 °C) -1.44 ± 0.054; (37 °C) -0.588 ± 0.053.
In the case of CAGGAGCAAUAUUACGCCUC, under “30 °C”, the “self-splicing fitness (ln)” value was -2.08 ± 0.23.
Turning to CAGGAGCAAUAUUACGCGUU, the “self-splicing fitness (ln)” value by setting is: (30 °C) -3.4 ± 0.17; (37 °C) -2.01 ± 0.19.
The like results for CAGGAGCAAUAUUACGCUUA were, in that order, -2.86 ± 0.21 and -2.02 ± 0.21.
Regarding CAGGAGCAAUAUUACGGCCU, the “self-splicing fitness (ln)” value is -2.22 ± 0.24 (30 °C) and -1.42 ± 0.31 (37 °C).
On to CAGGAGCAAUAUUACGGCGU, for which the “self-splicing fitness (ln)” value (30 °C) was -3.11 ± 0.2 and the “self-splicing fitness (ln)” value (37 °C) was -2.84 ± 0.28.
The matching figures for CAGGAGCAAUAUUACGGCUA: -2.6 ± 0.19 and -1.34 ± 0.16.
Turning to CAGGAGCAAUAUUACGGGUG, the “self-splicing fitness (ln)” value is -1.64 ± 0.082 (30 °C) and -0.707 ± 0.08 (37 °C).
With CAGGAGCAAUAUUACGGUGG, the “self-splicing fitness (ln)” value is, setting by setting: (30 °C) -1.91 ± 0.14; (37 °C) 0.146 ± 0.1.
CAGGAGCAAUAUUACGUAAC: the “self-splicing fitness (ln)” value was -3.33 ± 0.26 (30 °C) and -2.74 ± 0.32 (37 °C).
CAGGAGCAAUAUUACGUAUC: the “self-splicing fitness (ln)” value was -3.11 ± 0.23 (30 °C) and -3.54 ± 0.27 (37 °C).
The matching figures for CAGGAGCAAUAUUACGUCAG: -3.88 ± 0.4 and -1.17 ± 0.28.
The like results for CAGGAGCAAUAUUACGUCCU were, in that order, -2.72 ± 0.24 and -2.08 ± 0.24.
In the case of CAGGAGCAAUAUUACGUCUG, where the note is “30 °C”, the “self-splicing fitness (ln)” value is -2.47 ± 0.22.
In the case of CAGGAGCAAUAUUACGUGUG, the “self-splicing fitness (ln)” value is, setting by setting: (30 °C) -2.56 ± 0.13; (37 °C) -0.614 ± 0.1.
Turning to CAGGAGCAAUAUUACGUUCU, the “self-splicing fitness (ln)” value reads like this: (30 °C) -4.15 ± 0.2; (37 °C) -2.05 ± 0.14.
With CAGGAGCAAUAUUACGUUUC, the “self-splicing fitness (ln)” value runs as follows: (30 °C) -3.21 ± 0.28; (37 °C) -3.11 ± 0.38.
The matching figures for CAGUAGCAAUAUUACGACUA: 0.402 ± 0.089 and 0.675 ± 0.11.
In the case of CAGUAGCAAUAUUACGAGUA, the “self-splicing fitness (ln)” value runs as follows: (30 °C) -2.34 ± 0.21; (37 °C) -2.57 ± 0.31.
Take CAGUAGCAAUAUUACGAGUG: the “self-splicing fitness (ln)” value was -0.988 ± 0.052 (30 °C) and -0.603 ± 0.076 (37 °C).
The like results for CAGUAGCAAUAUUACGAUAG were, in that order, 0.00229 ± 0.079 and 0.167 ± 0.097.
For CAGUAGCAAUAUUACGCAAA, the “self-splicing fitness (ln)” value (37 °C) was -3.33 ± 0.43.
Regarding CAGUAGCAAUAUUACGCCAA, the “self-splicing fitness (ln)” value reads like this: (30 °C) -2.85 ± 0.36; (37 °C) -2.91 ± 0.31.
Turning to CAGUAGCAAUAUUACGCUGG, the “self-splicing fitness (ln)” value runs as follows: (30 °C) -2.5 ± 0.17; (37 °C) -1.34 ± 0.19.
Consider CAGUAGCAAUAUUACGGUCA, for which the “self-splicing fitness (ln)” value (37 °C) is -1.71 ± 0.28.
As for CAGUAGCAAUAUUACGUCAG, the “self-splicing fitness (ln)” value (30 °C) is -0.873 ± 0.07 and the “self-splicing fitness (ln)” value (37 °C) was found to be 0.623 ± 0.095.
Consider CAGUAGCAAUAUUACGUCCG, for which the “self-splicing fitness (ln)” value was -0.245 ± 0.24 (30 °C) and 1.29 ± 0.42 (37 °C).
CAGUAGCAAUAUUACGUCGA: the “self-splicing fitness (ln)” value is -3.45 ± 0.25 (30 °C) and -1.49 ± 0.17 (37 °C).
Take CAGUAGCAAUAUUACGUCGC: where the note is “37 °C”, the “self-splicing fitness (ln)” value was -2.7 ± 0.4.
With CAGUAGCAAUAUUACGUUAU, the “self-splicing fitness (ln)” value (30 °C) is -2.82 ± 0.24 and the “self-splicing fitness (ln)” value (37 °C) was -1.37 ± 0.2.
With CAGUAGCAAUAUUACGUUGA, the “self-splicing fitness (ln)” value (37 °C) was -2.14 ± 0.16.
For CAUAAGCAAUAUUACGACAU, the “self-splicing fitness (ln)” value (30 °C) is -3.64 ± 0.024 and the “self-splicing fitness (ln)” value (37 °C) is -2.45 ± 0.037.
On to CAUAAGCAAUAUUACGACGG, for which the “self-splicing fitness (ln)” value by setting is: (30 °C) -0.41 ± 0.072; (37 °C) -0.00998 ± 0.088.
The matching figures for CAUAAGCAAUAUUACGAGGA: -3.13 ± 0.18 and -2.23 ± 0.21.
As for CAUAAGCAAUAUUACGAGUU, the “self-splicing fitness (ln)” value (30 °C) is -3.62 ± 0.29 and the “self-splicing fitness (ln)” value (37 °C) was -1.82 ± 0.14.
With CAUAAGCAAUAUUACGAUUG, the “self-splicing fitness (ln)” value is -2.62 ± 0.095 (30 °C) and -1.27 ± 0.11 (37 °C).
